The nanobody polyreactivity screen of Harvey et al. (2022)

Assay: yeast display, Sf9 membrane polyspecificity reagent, FACS + sequencing; frameworks hold sequencing errors
Outline: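 After 36–48 hours of galactose induction, yeast (Saccharomyces cerevisiae BJ5465) displaying a synthetic nanobody library were stained at 4 °C for 1 hour with 10% biotinylated, detergent-solubilized Sf9 membrane reagent. Streptavidin microbeads enriched the stained cells before FACS sorting into low and high (top ~1%) gates on anti-HA and streptavidin fluorescence. Each clone's polyreactivity label reflects its gate of origin.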
In the case of “QVQLVESGGGLVQAGGSLRLSCAASGRTFGYYAMGWYRPAPGKERELVAAISSGGRTYYADSVKGRFTISRDNAKNTVYLQMNSLKPEDTAVYYCNAASLVAYLARLGRDYWGQGTQVTVSS”, the “polyreactivity (PSR sort gate)” value is reported as “low polyreactivity”.
In the case of “QVQLVESGGGLVQAGGSLRLSCAASGRTFGYYAMGWYRPAPGKERELVASITGGGSTNYADSVKGRFTISRDNAKNTVYLQMNSLKPEDTAVYYCAAETITDDYYEYDYWGQGTQVTVSS”, the “polyreactivity (PSR sort gate)” value is reported as “low polyreactivity”.
In the case of “QVQLVESGGGLVQAGGSLRLSCAASGRTFGYYAMGWYRPEHGTERELVAAITRTGGSTHYADSVKGRFTISRDNAKNTVYLQMNSLKPEDTAVYYCARDYRYTIPYDYWGQGTQVTVSS”, the “polyreactivity (PSR sort gate)” value is reported as “low polyreactivity”.
With “QVQLVESGGGLVQAGGSLRLSCAASGRTFGYYAMGWYRQAPGIERELVATITWGDGTTYYADSVKGRFTFSRDNAKNTVYLQMNILKPEDTAVYYCAVDRSSWWWDDYRYDYWGQGTQVTVSS” the “polyreactivity (PSR sort gate)” value was “low polyreactivity”.
In the case of “QVQLVESGGGLVQAGGSLRLSCAASGRTFGYYAMGWYRQAPGKERELVAAINSRGGSTYYADSVKGRFTISRDNAKNTVYLQMNSLKPEDTAVYYCAVVRWRHYIFATYDYWGQGTQVTVSS”, the “polyreactivity (PSR sort gate)” value is reported as “high polyreactivity”.
In the case of “QVQLVESGGGLVQAGGSLRLSCAASGRTFGYYAMGWYRQAPGKERELVAAISRSGSRTYYADSVKGRFTISRDNAKNTVYLQMNSLKPEDTAVYYCNKVKEFYVPTEYDYWGQGTQVTVSS”, the “polyreactivity (PSR sort gate)” value is reported as “high polyreactivity”.
In the case of “QVQLVESGGGLVQAGGSLRLSCAASGRTFGYYAMGWYRQAPGKERELVAAISTRSGSTYYADSVKGRFTISRDNAKNTVYLQMNSLKPEDTAVYYCDADSYPDYDYWGQGTQVTVSS”, the “polyreactivity (PSR sort gate)” value is reported as “low polyreactivity”.
In the case of “QVQLVESGGGLVQAGGSLRLSCAASGRTFGYYAMGWYRQAPGKERELVAAISYSSTITYYAGSVKGRFTISRDNAKNTVYLQMNSLKPEDTAVYYCAAYSTRGVEYDYWGQGTQVTVSS”, the “polyreactivity (PSR sort gate)” value is reported as “high polyreactivity”.
In the case of “QVQLVESGGGLVQAGGSLRLSCAASGRTFGYYAMGWYRQAPGKERELVASISWIGDDTYYADSVKGRFTISRDYAKNTVYLQMNSLKPEDTAVYYCNAVYAGRYFGFDYWGQGTQVTVSS”, the “polyreactivity (PSR sort gate)” value is reported as “high polyreactivity”.
For “QVQLVESGGGLVQAGGSLRLSCAASGRTFGYYGMGWYRQAPGKEREFFAAITRSGGSTYYADSVKGRFTISRDNAKNTVYLQMNSLKPEDTAVYYCAAAHLFTRSRPYDYWGQGTQVTVSS”, the “polyreactivity (PSR sort gate)” value was “high polyreactivity”.
For “QVQLVESGGGLVQAGGSLRLSCAASGRTFGYYTMGWYRQAPGKEREFVAAISGSGTITFYADSVKGRFTISRDNAKNTVYLQMNSLKPEDTAVYYCAADYRYGGSRGYRYDYWGQGTQVTVSS”, the “polyreactivity (PSR sort gate)” value was “low polyreactivity”.
With “QVQLVESGGGLVQAGGSLRLSCAASGRTFGYYTMGWYRQAPGKERELVATITSSGGSTYYADSVKGRFTISRDNAKNTVYLQMNSLKPEDTAVYYCAARRKQGAYDYWGQGTQVTVSS” the “polyreactivity (PSR sort gate)” value was “high polyreactivity”.
With “QVQLVESGGGLVQAGGSLRLSCAASGRTFHANAMGWYRQAPGKERELVAAISYRTGSTYYADSVKGRFTISRDNAKNTVYLQMNILKPDDTAVYYCDVDTRYGYGYWGQGTQVTVSS” the “polyreactivity (PSR sort gate)” value was “high polyreactivity”.
For “QVQLVESGGGLVQAGGSLRLSCAASGRTFHGYAMGWYRQAPGKERELVARINWSDGRTYYADSVKGRFTISRDNAKNTVYLQMNSLKPEEPAVYYCAATRYYYYWYVYEDRGDFWGQGTQVTVSS”, the “polyreactivity (PSR sort gate)” value was “low polyreactivity”.
With “QVQLVESGGGLVQAGGSLRLSCAASGRTFHTNAMGWYRQAPGKERELVAAITRSGSGTYYADSVKGRFTISRDNAKNTVYLQMNSLKPEDTAVYYCNAVRRGEYDYWGQGTQVTVSS” the “polyreactivity (PSR sort gate)” value was “high polyreactivity”.
With “QVQLVESGGGLVQAGGSLRLSCAASGRTFHYNAMGWYRQAPGKERELVAAITRSGGSTYYADSLKGRFTISRVNAKNTVYLQMNSLKPEDTAVYYCAAGWRSVSVRYYGPSDYWGQGTQVTVSS” the “polyreactivity (PSR sort gate)” value was “low polyreactivity”.
In the case of “QVQLVESGGGLVQAGGSLRLSCAASGRTFHYYAMGWYRQAPGKERELVAGITGGGSTYYADSVKGRFTISRDNAKNTVYLQMNSLKPEDTAVYYCNARPYWFGSYGYWGQGTQVTVSS”, the “polyreactivity (PSR sort gate)” value is reported as “low polyreactivity”.
With “QVQLVESGGGLVQAGGSLRLSCAASGRTFHYYAMGWYRQAPGKERELVASISSGGSTHYADSVKGRFTISRDNANNTGYLQMNSLKPEDTAVYYCNRVDGYGPRNKVPYVTYGVYYWGQGTQVTVSS” the “polyreactivity (PSR sort gate)” value was “low polyreactivity”.
With “QVQLVESGGGLVQAGGSLRLSCAASGRTFIEYAMAWYRQAPGKERELVAAISRNDGGSTYYADSVKGRFTISRDNAKNTVYLQMNSLKPEDTAVYYCAARRYISAHVRYGSWGQGTQVTLSS” the “polyreactivity (PSR sort gate)” value was “high polyreactivity”.
For “QVQLVESGGGLVQAGGSLRLSCAASGRTFIGYAMGWYRQAPGKERELVAAISRGGSTKYADSVKGRFTISRDNAKNTVYLQMNSLKPEDTAVYYCAVGWSYYAGLRHRYYSGFDYWGQGTQVTLSS”, the “polyreactivity (PSR sort gate)” value was “low polyreactivity”.
In the case of “QVQLVESGGGLVQAGGSLRLSCAASGRTFILNAMGLYRQAPGKERELVAAISWSGGSTYYADSVKGRFTISRDNAKNTVYLQMNSLKPEDTAVYYCAAETYAYLFHTYDYWGQGTQVTVSS”, the “polyreactivity (PSR sort gate)” value is reported as “low polyreactivity”.
In the case of “QVQLVESGGGLVQAGGSLRLSCAASGRTFINYAMGWYRQAPGKERELVAAITTGGRTNYADSVKGRFTISRDNAKHTVYLQMNSLKPEDTAVYYCAADRYYWGRYTLNYWGQGTQVTVSS”, the “polyreactivity (PSR sort gate)” value is reported as “low polyreactivity”.
With “QVQLVESGGGLVQAGGSLRLSCAASGRTFIRYAMGGYRQATGKERELVAAISWSGGSTYYADSVKGRFTISRDNAKNTVYLQMNSLKPEDTAVYYCARRVGYKFSYDYWGQGTQVTVSS” the “polyreactivity (PSR sort gate)” value was “high polyreactivity”.
For “QVQLVESGGGLVQAGGSLRLSCAASGRTFIRYTMGWYRQASGKERELVAAITSTGRTYYADSVKGRFTFSRDNAKNTVYLEMNSLKPEDTAVYYCAAKQSWEVYDYWGQGTQVTVSS”, the “polyreactivity (PSR sort gate)” value was “low polyreactivity”.
With “QVQLVESGGGLVQAGGSLRLSCAASGRTFISNVMGWYRQAPGKERELVAAIRSSGRTYYADSVKGRFTISRDNAKNTVYFQMNSLKPEDTAVYYCAAPGGLLGSGYWGQGTQVTVSS” the “polyreactivity (PSR sort gate)” value was “low polyreactivity”.
For “QVQLVESGGGLVQAGGSLRLSCAASGRTFIVNTMGRYRQAPGKERELVAAITARGGRTYYADSVKGRFTISRDNAKNTVYLQMNSLKPEDTAVYYCNARTPPREAERYYWGLGTQVTVSS”, the “polyreactivity (PSR sort gate)” value was “low polyreactivity”.
With “QVQLVESGGGLVQAGGSLRLSCAASGRTFIYNTMGGYRQAPGKERELVAAITGNGGSTYYADSVKGRFTISRDYEKNTVYFQMNSLKPEDTAVYYCNAVGFDQPRYYYWGQGTQVTVSS” the “polyreactivity (PSR sort gate)” value was “high polyreactivity”.
For “QVQLVESGGGLVQAGGSLRLSCAASGRTFIYNVMGWYRQAPGKERELVASIRSSGGSTYYADSVKGRFTISRDNAKNTVYLQMNSLKPEDTAVYYCAADRSPGIRGWPGDYWGQGTQVTVSS”, the “polyreactivity (PSR sort gate)” value was “low polyreactivity”.
For “QVQLVESGGGLVQAGGSLRLSCAASGRTFIYYAMGWYRQAPGKERELVAGITYSVGSTYYADSVKGRFTISRDNEKNTVYLQMNSLKPEDTAVYYCAYYYWGQGTQVTVSS”, the “polyreactivity (PSR sort gate)” value was “low polyreactivity”.
For “QVQLVESGGGLVQAGGSLRLSCAASGRTFKDYAMGWYRQAPGKERELVAGINGSGGSTYYADSVKGRFTISRDYAKNTVYLQMNSLKPEDTAVYYCNADFGYWWDGRRYDYWGQGTQVTVSS”, the “polyreactivity (PSR sort gate)” value was “low polyreactivity”.
In the case of “QVQLVESGGGLVQAGGSLRLSCAASGRTFKGYAMGWYRQAPGKERELVAAITGSVGSTYYADSVKGRFTISRDNAKNTVYLQMNSLKPEDTAVYYCAKRWKATRARYDYWGQGTQVTVSS”, the “polyreactivity (PSR sort gate)” value is reported as “high polyreactivity”.
For “QVQLVESGGGLVQAGGSLRLSCAASGRTFKHYVMGWYRQAPGKERELVATISGGGGTYFADSVKGRFTISRYNAKYTVYLQMNSLKPEVTAVYYCAARYPRGSRTWSFDSNKQRDYWGQGTQVTVSS”, the “polyreactivity (PSR sort gate)” value was “low polyreactivity”.
With “QVQLVESGGGLVQAGGSLRLSCAASGRTFKKYAMGWYRQAPGKERELVAAITGSGGSTYYADSVKGRFTISRDNAKNTVYLQMNSLKPEDTAVYYCAAEVVAQMNYWGQGTQVTVSS” the “polyreactivity (PSR sort gate)” value was “low polyreactivity”.
With “QVQLVESGGGLVQAGGSLRLSCAASGRTFKKYAMGWYRQAPGKERELVAAITGSGGSTYYADSVKGRFTISRDNAKNTVYLQMNSLKPEDTAVYYCAAYAYGVWHSQDGGNYWGQGTLVTVSS” the “polyreactivity (PSR sort gate)” value was “low polyreactivity”.
For “QVQLVESGGGLVQAGGSLRLSCAASGRTFKLYAMGWYRQAPGKERELVAALSIRGTSTYYADSVKGRFTISRDNAKNTVYLQMNSLKPEDTAVYYCAAEDRYGYYLVRWQGYYYWGQGTQVTVSS”, the “polyreactivity (PSR sort gate)” value was “low polyreactivity”.
With “QVQLVESGGGLVQAGGSLRLSCAASGRTFKNYAMGSYRQAPGKERELVAAISWRSGSTNYADSVKGRCTISRDNAKNTVYLQMNSLKPEDTAVYYCARKRRISGWSQFTSYADFDYWGQGSQVTVSS” the “polyreactivity (PSR sort gate)” value was “low polyreactivity”.
With “QVQLVESGGGLVQAGGSLRLSCAASGRTFKNYAMGWYRQAPGKERELVAAISRRGSSTYYADSVKGRFTISRDNAKNTVYLQMNSLKPEDTAVYYCNAVKFTYGWLGYWGQGTQVTVSS” the “polyreactivity (PSR sort gate)” value was “high polyreactivity”.
For “QVQLVESGGGLVQAGGSLRLSCAASGRTFKPYAMGWYRQAPGIERELVARISGSGGSTYYADSVKGRFTISRDNGKNTVYLQLNSLKPEDTAVYYCATTPYYWFDYWGQGTQVTVSS”, the “polyreactivity (PSR sort gate)” value was “low polyreactivity”.
For “QVQLVESGGGLVQAGGSLRLSCAASGRTFKPYAMGWYRQAPGKERELVAAISSGVSTHYADSVKGRFTISRDNAKNTVYLQMNSLKPEDTAVYYCAADRSSQFDLDYWGQGTRVTVSS”, the “polyreactivity (PSR sort gate)” value was “low polyreactivity”.
In the case of “QVQLVESGGGLVQAGGSLRLSCAASGRTFKPYAMGWYRQAPGKERELVAVISSTGSTKYADSVKGRFTISRDNAKNTVYLQMNSLKPEDTAVYYCAAQNTYIYYWGQGTQVTVSS”, the “polyreactivity (PSR sort gate)” value is reported as “high polyreactivity”.
For “QVQLVESGGGLVQAGGSLRLSCAASGRTFKQYAMGCYRQAPGKERELVAVITRTGGSTYYADSVKGRFTISRDNAKNTVYLLMNSLKPEDTAVYYCARYPPRGYIAWRYYDYDYWGQGTQVTVSS”, the “polyreactivity (PSR sort gate)” value was “high polyreactivity”.
